Test results as given in patent US20260043816A1.

Legend:
[1] = target: peptides 11 and 23 (human); experiment: pairing sandwich ELISA, antibody coated as capture, target titrated
[2] = target: peptides 11 and 23 (human); experiment: pairing sandwich ELISA, biotinylated antibody as detector, target titrated

EC50 [1]: 0.904 nM
EC50 [2]: 0.056 nM
B1: ACI-8070-942.30D12-Ab1 (antibody, V domains shown)
VH: DVQLVESGGGLVQPGGSRKLSCEASGFTFSSIGMHWVRQAPEKGLEWVAYITSGSSTIYYADTVKGRFTISRDNPKNTLFLQMTSLRSEDTAIYYCAGSGPGTDYWGQGTTLTVSS
VL: DIKMTQSPSSMYASLGERVTITCKASQDINSYLSWFQQKPGKSPKTLIYRANRLVDGVPSRFSGSGSGQDYSLTISSLEYEDMGIYYCLQYDEFPLTFGAGTKLELK
